In general, Kd refers to the free concentration of one partner at which half of the binding sites on the other are occupied at equilibrium, for simple one-to-one binding. Read a low Kd as a tighter complex.

The target in assay [1] is SARS-CoV-2 WT S-ECD蛋白 (新冠野生株, Genbank NC_045512.2) (SARS-CoV-2, UniProt P0DTC2 14-1213).
Assay [2] has as its target Gamma株 S蛋白 (on pseudovirus) (SARS-CoV-2 Gamma株 (P.1)). Nature of the assay: cell-based or functional assay.
The target of assay [3] is Omicron株 S蛋白 (on pseudovirus) (SARS-CoV-2 Omicron株 (B.1.1.529)). Nature of the assay: cell-based or functional assay.
Assay [4] deals with Alpha株 S蛋白 (on pseudovirus) (SARS-CoV-2 Alpha株 (B.1.1.7)). Nature of the assay: cell-based or functional assay.
For assay [5], the target named is Delta株 S蛋白 (on pseudovirus / live virus) (SARS-CoV-2 Delta株 (B.1.617.2)). Nature of the assay: cell-based or functional assay.
The target of assay [6] is Beta株 S蛋白 (on pseudovirus / live virus) (SARS-CoV-2 Beta株 (B.1.351)). The assay is described as follows: cell-based or functional assay.

B1: 抗SARS-CoV-2全人源单克隆抗体ZW2G10 (antibody, V domains shown)
VH: EVQLVESGGGLVQPGRSLRLSCAASGFTFDDYAMHWVRQAPGKGLEWVSGITWNSGTIGYADSVKGRFIISRDNAKNSLHLQMNSLRVEDTALYYCAKDNSDYSGYYWELENYGMDVWGQGTTVTVSS
VL: QSVLTQPPSVSGAPGQRVTISCTGSSSNIGAGYDVHWYQQLPGTAPKLLIYDNNNRPSGVPDRFSGSKSGTSASLAITGLQAEDEADYYCQSFDSSLSGVVFGGGTRLTVLR
notes: also called 单抗ZW2G10
Regarding B1, the Kd in assay [1] was 0.243 nM. Besides, the “假病毒中和 EC50” value in assay [2] is 0.0156 mg/L; in assay [3] it was 0.0193 mg/L; in assay [4], 0.0141 mg/L; in assay [5], 0.0362 mg/L; in assay [6], 0.0184 mg/L. Moreover, the “真病毒中和 EC50 (Vero E6)” value in assay [5] is 0.71 mg/L; in assay [6], 1.42 mg/L.

The values above are taken from CN114031685A (INST MILITARY MEDICINE ACADEMY MILITARY SCIENCES PLA, dated 2022).
